Laboratory results as given in patent publication US20210214461A1.

What was measured:
[1] = biological target: pre-existing anti-scFv903 antibodies in human serum H105 (human); test: competition ADA bridging ELISA
[2] = biological target: pre-existing anti-scFv903 antibodies in human serum H115 (human); test: competition ADA bridging ELISA
[3] = biological target: pre-existing anti-scFv903 antibodies in human serum H116 (human); test: competition ADA bridging ELISA
[4] = biological target: pre-existing anti-scFv903 antibodies in human serum H125 (human); test: competition ADA bridging ELISA
[5] = biological target: pre-existing anti-scFv903 antibodies in human serum H135 (human); test: competition ADA bridging ELISA
[6] = biological target: pre-existing anti-scFv903 antibodies in human serum H14 (human); test: competition ADA bridging ELISA
[7] = biological target: pre-existing anti-scFv903 antibodies in human serum H15 (human); test: competition ADA bridging ELISA
[8] = biological target: pre-existing anti-scFv903 antibodies in human serum H19 (human); test: competition ADA bridging ELISA
[9] = biological target: pre-existing anti-scFv903 antibodies in human serum H20 (human); test: competition ADA bridging ELISA
[10] = biological target: pre-existing anti-scFv903 antibodies in human serum H21 (human); test: competition ADA bridging ELISA
[11] = biological target: pre-existing anti-scFv903 antibodies in human serum H26 (human); test: competition ADA bridging ELISA
[12] = biological target: pre-existing anti-scFv903 antibodies in human serum H29 (human); test: competition ADA bridging ELISA
[13] = biological target: pre-existing anti-scFv903 antibodies in human serum H3 (human); test: competition ADA bridging ELISA
[14] = biological target: pre-existing anti-scFv903 antibodies in human serum H40 (human); test: competition ADA bridging ELISA
[15] = biological target: pre-existing anti-scFv903 antibodies in human serum H46 (human); test: competition ADA bridging ELISA
[16] = biological target: pre-existing anti-scFv903 antibodies in human serum H49 (human); test: competition ADA bridging ELISA
[17] = biological target: pre-existing anti-scFv903 antibodies in human serum H50 (human); test: competition ADA bridging ELISA
[18] = biological target: pre-existing anti-scFv903 antibodies in human serum H53 (human); test: competition ADA bridging ELISA
[19] = biological target: pre-existing anti-scFv903 antibodies in human serum H54 (human); test: competition ADA bridging ELISA
[20] = biological target: pre-existing anti-scFv903 antibodies in human serum H55 (human); test: competition ADA bridging ELISA
[21] = biological target: pre-existing anti-scFv903 antibodies in human serum H56 (human); test: competition ADA bridging ELISA
[22] = biological target: pre-existing anti-scFv903 antibodies in human serum H59 (human); test: competition ADA bridging ELISA
[23] = biological target: pre-existing anti-scFv903 antibodies in human serum H60 (human); test: competition ADA bridging ELISA
[24] = biological target: pre-existing anti-scFv903 antibodies in human serum H63 (human); test: competition ADA bridging ELISA
[25] = biological target: pre-existing anti-scFv903 antibodies in human serum H64 (human); test: competition ADA bridging ELISA
[26] = biological target: pre-existing anti-scFv903 antibodies in human serum H66 (human); test: competition ADA bridging ELISA
[27] = biological target: pre-existing anti-scFv903 antibodies in human serum H69 (human); test: competition ADA bridging ELISA
[28] = biological target: pre-existing anti-scFv903 antibodies in human serum H76 (human); test: competition ADA bridging ELISA
[29] = biological target: pre-existing anti-scFv903 antibodies in human serum H79 (human); test: competition ADA bridging ELISA
[30] = biological target: pre-existing anti-scFv903 antibodies in human serum H8 (human); test: competition ADA bridging ELISA
[31] = biological target: pre-existing anti-scFv903 antibodies in human serum H80 (human); test: competition ADA bridging ELISA
[32] = biological target: pre-existing anti-scFv903 antibodies in human serum H81 (human); test: competition ADA bridging ELISA
[33] = biological target: pre-existing anti-scFv903 antibodies in human serum H86 (human); test: competition ADA bridging ELISA
[34] = biological target: pre-existing anti-scFv903 antibodies in human serum H96 (human); test: competition ADA bridging ELISA
[35] = biological target: pre-existing anti-scFv903 antibodies in human serum H135 (human); test: competition ADA bridging ELISA, 100 mcg/ml competitor
[36] = biological target: pre-existing anti-scFv903 antibodies in human serum H15 (human); test: as above
[37] = biological target: pre-existing anti-scFv903 antibodies in human serum H19 (human); test: as above
[38] = biological target: pre-existing anti-scFv903 antibodies in human serum H21 (human); test: as above
[39] = biological target: pre-existing anti-scFv903 antibodies in human serum H29 (human); test: as above
[40] = biological target: pre-existing anti-scFv903 antibodies in human serum H49 (human); test: as above
[41] = biological target: pre-existing anti-scFv903 antibodies in human serum H53 (human); test: as above
[42] = biological target: pre-existing anti-scFv903 antibodies in human serum H63 (human); test: as above
[43] = biological target: pre-existing anti-scFv903 antibodies in human serum H64 (human); test: as above
[44] = biological target: pre-existing anti-scFv903 antibodies in human serum H8 (human); test: as above
[45] = biological target: pre-existing anti-scFv903 antibodies in human serum H80 (human); test: as above
[46] = biological target: pre-existing anti-scFv903 antibodies in human serum H81 (human); test: as above

B1: scFv 791 (scFv)
scFv: MEIVMTQSPSTLSASLGDRVIITCQSSQSVYGNIWMAWYQQKSGKAPKLLIYQASKLASGVPSRFSGSGSGAEFSLTISSLQPDDFATYYCQGNFNTGDRYAFGQGTKLTVLGGGGGSGGGGSGGGGSGGGGSEVQLVESGGGLVQPGGSLRLSCTASGFTISRSYWICWVRQAPGKGLEWVACIYGDNDITPLYANWAKGRFPVSTDTSKNTVYLQMNSLRAEDTAVYYCARLGYADYAYDLWGQGTLVTVSS
- signal change in competition ELISA (% reduction in OD) [1]: -97%
- signal change in competition ELISA (% reduction in OD) [2]: -95%
- signal change in competition ELISA (% reduction in OD) [3]: -97%
- signal change in competition ELISA (% reduction in OD) [4]: -97%
- signal change in competition ELISA (% reduction in OD) [5]: -95%
- signal change in competition ELISA (% reduction in OD) [6]: -96%
- signal change in competition ELISA (% reduction in OD) [7]: -90%
- signal change in competition ELISA (% reduction in OD) [8]: -84%
- signal change in competition ELISA (% reduction in OD) [9]: -96%
- signal change in competition ELISA (% reduction in OD) [10]: -85%
- signal change in competition ELISA (% reduction in OD) [11]: -97%
- signal change in competition ELISA (% reduction in OD) [12]: -79%
- signal change in competition ELISA (% reduction in OD) [13]: -85%
- signal change in competition ELISA (% reduction in OD) [14]: -95%
- signal change in competition ELISA (% reduction in OD) [15]: -77%
- signal change in competition ELISA (% reduction in OD) [16]: -81%
- signal change in competition ELISA (% reduction in OD) [17]: -89%
- signal change in competition ELISA (% reduction in OD) [18]: -35%
- signal change in competition ELISA (% reduction in OD) [19]: -92%
- signal change in competition ELISA (% reduction in OD) [20]: -96%
- signal change in competition ELISA (% reduction in OD) [21]: -15%
- signal change in competition ELISA (% reduction in OD) [22]: -96%
- signal change in competition ELISA (% reduction in OD) [23]: -95%
- signal change in competition ELISA (% reduction in OD) [24]: -20%
- signal change in competition ELISA (% reduction in OD) [25]: -96%
- signal change in competition ELISA (% reduction in OD) [26]: -96%
- signal change in competition ELISA (% reduction in OD) [27]: -75%
- signal change in competition ELISA (% reduction in OD) [28]: -96%
- signal change in competition ELISA (% reduction in OD) [29]: -97%
- signal change in competition ELISA (% reduction in OD) [30]: -91%
- signal change in competition ELISA (% reduction in OD) [31]: -85%
- signal change in competition ELISA (% reduction in OD) [32]: -94%
- signal change in competition ELISA (% reduction in OD) [33]: -87%
- signal change in competition ELISA (% reduction in OD) [34]: -79%
- % reduction in OD [35]: -95.2%
- % reduction in OD [36]: -90%
- % reduction in OD [37]: -84.3%
- % reduction in OD [38]: -85.3%
- % reduction in OD [39]: -78.7%
- % reduction in OD [40]: -81.2%
- % reduction in OD [41]: -34.6%
- % reduction in OD [42]: -19.7%
- % reduction in OD [43]: -95.5%
- % reduction in OD [44]: -90.7%
- % reduction in OD [45]: -85.3%
- % reduction in OD [46]: -94.4%
